Our source for the binding result and stoichiometry N values is publication PMC9287425, “Hepatic non-parenchymal S100A9-TLR4-mTORC1 axis normalizes diabetic ketogenesis” (Nature Communications, 2022).

Data set [1] concerns the molecule itself. In words: SEC; analytical gel filtration, Superose 6 Increase 3.2/300 column.
In data set [2] the target is T1, recombinant human S100A9 (human), P06702.
T1 chain: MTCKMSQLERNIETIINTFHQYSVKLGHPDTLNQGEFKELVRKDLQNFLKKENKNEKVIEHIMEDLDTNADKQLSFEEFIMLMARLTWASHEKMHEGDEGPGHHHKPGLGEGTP
Description: SEC-MALS; 30 µL of protein at 5 mg/mL on a Superose 6 Increase 10/300 GL column; light scattering and refractive index detectors. The note with it: remark: other sources report otherwise. (Size exclusion chromatography separates by hydrodynamic size, large species first.)

B1: recombinant murine S100A9 (natural protein, UniProt P31725 1-113, looked up)
chain: MANKAPSQMERSITTIIDTFHQYSRKEGHPDTLSKKEFRQMVEAQLATFMKKEKRNEALINDIMEDLDTNQDNQLSFEECMMLMAKLIFACHEKLHENNPRGHGHSHGKGCGK
notes: cDNA encoding the protein cloned into a pET29+ vector; The homodimeric status is said of r-hS100A9; also called r-mS100A9; not shown: His10, N-terminal, cleaved; MBP, N-terminal, cleaved
In the case of B1, the binding result in data set [1] is reported as “binds”.

B2: recombinant human S100A9, P06702 1-114 (natural protein)
chain: T1 chain
For the molecule B2, the stoichiometry N in data set [2] worked out at 2.

The stoichiometry N is a count of units in the complex or per binding partner.
